Assay results taken from patent publication US20230079757A1, “METHODS AND MATERIALS FOR TREATING CANCER” (Mayo Foundation for Medical Education and Research, priority 2020, published 2023).

B3: STAT1 (other, human, UniProt P42224 2-750, looked up)
chain: SQWYELQQLDSKFLEQVHQLYDDSFPMEIRQYLAQWLEKQDWEHAANDVSFATIRFHDLLSQLDDQYSRFSLENNFLLQHNIRKSKRNLQDNFQEDPIQMSMIIYSCLKEERKILENAQRFNQAQSGNIQSTVMLDKQKELDSKVRNVKDKVMCIEHEIKSLEDLQDEYDFKCKTLQNREHETNGVAKSDQKQEQLLLKKMYLMLDNKRKEVVHKIIELLNVTELTQNALINDELVEWKRRQQSACIGGPPNACLDQLQNWFTIVAESLQQVRQQLKKLEELEQKYTYEHDPITKNKQVLWDRTFSLFQQLIQSSFVVERQPCMPTHPQRPLVLKTGVQFTVKLRLLVKLQELNYNLKVKVLFDKDVNERNTVKGFRKFNILGTHTKVMNMEESTNGSLAAEFRHLQLKEQKNAGTRTNEGPLIVTEELHSLSFETQLCQPGLVIDLETTSLPVVVISNVSQLPSGWASILWYNMLVAEPRNLSFFLTPPCARWAQLSEVLSWQFSSVTKRGLNVDQLNMLGEKLLGPNASPDGLIPWTRFCKENINDKNFPFWLWIESILELIKKHLLPLWNDGCIMGFISKERERALLKDQQPGTFLLRFSESSREGAITFTWVERSQNGGEPDFHAVEPYTKKELSAVTFPDIIRNYKVMAAENIPENPLKYLYPNIDKDHAFGKYYSRPKEAPEPMELDGPKGTGYIKTELISVSEVHPSRLQTTDNLLPMSPEEFDEVSRIVGSVEFDSMMNTV
notes: Cells were stimulated with IFN; also called endogenous STAT1

Tests used:
STAT1/STAT2 heterodimer [1] = molecular target: T1, STAT1/STAT2 heterodimer (human, UniProt P42224 2-750; P52630 1-851); assay: co-IP in 293T cells treated with IFNα (FIG. 9D)
T1 construct: It was inferred from co-IP after IFNα treatment and was not purified; also called STAT2/STAT1 heterodimer
T1 sequence (P52630 whole entry, one chain of several): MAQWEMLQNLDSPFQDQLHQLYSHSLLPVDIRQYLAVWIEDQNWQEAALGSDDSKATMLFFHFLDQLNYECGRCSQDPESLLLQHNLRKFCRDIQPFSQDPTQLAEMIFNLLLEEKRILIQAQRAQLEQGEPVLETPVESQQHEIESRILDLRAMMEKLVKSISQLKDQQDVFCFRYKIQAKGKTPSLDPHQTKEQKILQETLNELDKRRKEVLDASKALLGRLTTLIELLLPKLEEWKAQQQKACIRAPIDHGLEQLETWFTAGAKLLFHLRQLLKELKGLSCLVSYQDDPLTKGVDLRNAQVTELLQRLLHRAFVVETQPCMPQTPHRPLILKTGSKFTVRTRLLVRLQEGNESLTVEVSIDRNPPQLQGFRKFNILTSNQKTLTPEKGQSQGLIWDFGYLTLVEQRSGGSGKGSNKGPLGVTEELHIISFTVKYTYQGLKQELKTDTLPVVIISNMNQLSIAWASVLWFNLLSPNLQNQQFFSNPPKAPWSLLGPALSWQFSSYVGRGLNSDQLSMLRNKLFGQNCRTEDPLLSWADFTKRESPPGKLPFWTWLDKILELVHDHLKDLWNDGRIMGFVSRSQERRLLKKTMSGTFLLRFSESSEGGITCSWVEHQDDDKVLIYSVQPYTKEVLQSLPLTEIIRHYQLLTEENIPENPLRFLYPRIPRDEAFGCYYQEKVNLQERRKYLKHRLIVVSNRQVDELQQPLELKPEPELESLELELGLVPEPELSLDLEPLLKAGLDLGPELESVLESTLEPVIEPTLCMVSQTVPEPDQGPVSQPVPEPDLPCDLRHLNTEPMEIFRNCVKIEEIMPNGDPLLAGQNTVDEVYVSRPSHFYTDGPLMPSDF
Method: (§1) For extraction of nuclear and cytoplasmic proteins from cells, NE-PER Nuclear and Cytoplasmic Extraction Kit (# 78835, Thermo Fisher Scientific) was used according to the manufacturer's instructions. IP buffer (50 mM Tris-HCl pH7.5, 150 mM NaCl, 1% NP40, 0.5% Sodium Deoxycholate) was used to extract whole cell lysate. P rotein A/G agarose (# 20421, Thermo Fisher Scientific) was used for immunoprecipitation of FOXA1 (# ab23738, Abcam) and Flag-tag (dilution 1:1000; # F1804, Sigma-Aldrich). Monoclonal anti-HA agarose (# A2095, Sigma-Aldrich) was used for HA-tag Co-IP. For glutathione-S-transferase (GST) pulldown assay, GST-tagged STAT2 fragment expressed at E. coli was purified by Glutathione Sepharose 4B beads (# 84-239, Genesee Scientific) and incubated with lysate from 293T cells expressing interested proteins, and GST pulldown assays were performed. For protein co-IP, samples eluted in IP butter were incubated with agarose beads and antibodies overnight at 4° C. and washed with 6 times with IP buffer in the following day. Samples were boiled for 10 minutes in 50 μl sample buffer (2% SDS, 10% glycerol, 10% β-mercaptoethanol, bromophenol blue and Tris-HCl, pH 6.8) and subjected to Western blotting.

[2] = molecular target: T2, GST-tagged STAT2 DNA binding domain (a.a. 312-486) (UniProt P52630 312-486); assay: mutagenesis and GST pull down (FIG. 9E)
T2 construct: range 312-486; also called STAT2-DBD; STAT2 DBD; not shown: GST tag
T2 sequence (looked up): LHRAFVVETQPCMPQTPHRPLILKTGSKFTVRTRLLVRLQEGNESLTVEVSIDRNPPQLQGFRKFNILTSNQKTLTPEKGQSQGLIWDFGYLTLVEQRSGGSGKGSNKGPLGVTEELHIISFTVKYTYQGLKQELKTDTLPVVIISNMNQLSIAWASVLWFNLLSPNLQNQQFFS
Method: as §1

[3] = molecular target: the molecule itself; assay: co-IP in 293T cells treated with IFNγ (FIG. 9D)
Method: as §1

STAT2 [4] = molecular target: T3, STAT2 (human, UniProt P52630 1-851); assay: co-IP in 293T cells treated with IFNα (FIG. 9D)
T3 construct: also called endogenous STAT2
T3 sequence (P52630 whole entry): as the sequence (P52630 whole entry, one chain of several) above
Method: as §1

STAT1/STAT2 heterodimer [5] = molecular target: T1, STAT1/STAT2 heterodimer; assay: co-IP of endogenous proteins after IFNα treatment (FIG. 8A, 9A, 9B)
Method: as §1

STAT1 homodimer = molecular target: T4, STAT1 homodimer (human, UniProt P42224 2-750); assay: co-IP of endogenous proteins after IFNγ treatment (FIG. 8A, 9A, 9B)
T4 construct: It was inferred from co-IP after IFNγ treatment and was not purified; also called STAT1/STAT1 homodimer; STAT1-STAT1 complex
T4 sequence (looked up): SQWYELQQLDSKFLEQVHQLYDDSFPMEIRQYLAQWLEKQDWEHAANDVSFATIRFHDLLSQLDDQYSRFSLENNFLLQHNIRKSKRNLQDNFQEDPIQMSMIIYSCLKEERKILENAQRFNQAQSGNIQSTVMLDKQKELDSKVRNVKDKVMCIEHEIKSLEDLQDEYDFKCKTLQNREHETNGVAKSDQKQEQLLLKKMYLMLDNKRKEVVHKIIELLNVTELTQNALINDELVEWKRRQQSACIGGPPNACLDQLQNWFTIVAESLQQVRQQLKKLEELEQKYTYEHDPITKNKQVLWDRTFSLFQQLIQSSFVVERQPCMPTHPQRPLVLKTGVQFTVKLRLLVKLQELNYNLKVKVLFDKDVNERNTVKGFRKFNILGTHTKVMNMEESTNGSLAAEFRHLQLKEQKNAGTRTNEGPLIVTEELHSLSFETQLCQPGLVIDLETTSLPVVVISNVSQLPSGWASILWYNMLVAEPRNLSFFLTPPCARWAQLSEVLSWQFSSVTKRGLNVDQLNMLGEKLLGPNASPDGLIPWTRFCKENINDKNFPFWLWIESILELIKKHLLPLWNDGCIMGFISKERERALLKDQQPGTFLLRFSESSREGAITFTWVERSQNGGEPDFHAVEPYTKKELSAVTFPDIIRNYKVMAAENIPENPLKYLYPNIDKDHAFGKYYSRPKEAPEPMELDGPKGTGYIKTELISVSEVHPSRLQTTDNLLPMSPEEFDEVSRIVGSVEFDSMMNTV
Method: as §1

STAT2 [6] = molecular target: T3, STAT2; assay: co-IP of endogenous proteins in LNCaP cells (FIG. 8A)
Method: as §1

STAT1 = molecular target: B3; assay: co-IP of endogenous proteins, nuclear fraction (FIG. 8A, 9A, 9B)
Method: as §1

B1: IRF9 (other, UniProt Q00978 1-393, looked up)
chain: MASGRARCTRKLRNWVVEQVESGQFPGVCWDDTAKTMFRIPWKHAGKQDFREDQDAAFFKAWAIFKGKYKEGDTGGPAVWKTRLRCALNKSSEFKEVPERGRMDVAEPYKVYQLLPPGIVSGQPGTQKVPSKRQHSSVSSERKEEEDAMQNCTLSPSVLQDSLNNEEEGASGGAVHSDIGSSSSSSSPEPQEVTDTTEAPFQGDQRSLEFLLPPEPDYSLLLTFIYNGRVVGEAQVQSLDCRLVAEPSGSESSMEQVLFPKPGPLEPTQRLLSQLERGILVASNPRGLFVQRLCPIPISWNAPQAPPGPGPHLLPSNECVELFRTAYFCRDLVRYFQGLGPPPKFQVTLNFWEESHGSSHTPQNLITVKMEQAFARYLLEQTPEQQAAILSLV
STAT1/STAT2 heterodimer [1]
  binding result: binds

B2: FOXA1 forkhead domain-containing region (FKCR, a.a. 141-294) (other, UniProt P55317 141-294, looked up)
chain: MAYAPSNLGRSRAGGGGDAKTFKRSYPHAKPPYSYISLITMAIQQAPSKMLTLSEIYQWIMDLFPYYRQNQQRWQNSIRHSLSFNDCFVKVARSPDKPGKGSYWTLHPDSGNMFENGCYLRRQKRFKCEKQPGAGGGGGSGSGGSGAKGGPESR
notes: Expressed in 293T cells, and the lysate was used for GST pulldown; also called FOXA1-FKCR
[2]
  binding result: binds

## B3
[3]
  binding result: binds
STAT2 [4]
  binding result: binds

B4: FOXA1 (Forkhead box protein A1), wild type (other, human, UniProt P55317 1-472, looked up)
chain: MLGTVKMEGHETSDWNSYYADTQEAYSSVPVSNMNSGLGSMNSMNTYMTMNTMTTSGNMTPASFNMSYANPGLGAGLSPGAVAGMPGGSAGAMNSMTAAGVTAMGTALSPSGMGAMGAQQAASMNGLGPYAAAMNPCMSPMAYAPSNLGRSRAGGGGDAKTFKRSYPHAKPPYSYISLITMAIQQAPSKMLTLSEIYQWIMDLFPYYRQNQQRWQNSIRHSLSFNDCFVKVARSPDKPGKGSYWTLHPDSGNMFENGCYLRRQKRFKCEKQPGAGGGGGSGSGGSGAKGGPESRKDPSGASNPSADSPLHRGVHGKTGQLEGAPAPGPAASPQTLDHSGATATGGASELKTPASSTAPPISSGPGALASVPASHPAHGLAPHESQLHLKGDPHYSFNHPFSINNLMSSSEQQHKLDFKAYEQALQYSPYGSTLPASLPLGSASVTTRSPIEPSALEPAYYQGVYSRPVLNTS
notes: also called FOXA1-WT; WT FOXA1
STAT1/STAT2 heterodimer [5]
  binding result: binds
STAT1 homodimer
  binding result: binds
STAT2 [6]
  binding result: binds
STAT1
  binding result: binds
